Experimental findings from patent US20150368333A1 (GlaxoSmithKline, published 2015) are described below.

The target of assay [1] is T1, recombinant human FcRn (human, UniProt P55899 24-297; P61769 21-119, limits assumed).
T1 construct: also called Human FcRn receptor
The assay can be described thus: SPR, antibody amine-coupled on GLM chip, FcRn as analyte, equilibrium model, pH 6.0. For orientation: Surface plasmon resonance follows binding to a sensor surface in real time, without labels.

Assay [2] addresses T2, recombinant cynomolgus FcRn (cynomolgus, UniProt Q8SPV9 24-297; Q8SPW0 21-119, limits assumed).
T2 construct: Construct not described; beta-2-microglobulin not mentioned; also called cyno FcRn
The assay is described as above.

Assay [3] deals with T3, mouse FcRn (mouse, UniProt Q61559 22-297; P01887 21-119, limits assumed).
T3 construct: Construct not described; also called Mouse FcRn receptor
T3 sequence (looked up) 1: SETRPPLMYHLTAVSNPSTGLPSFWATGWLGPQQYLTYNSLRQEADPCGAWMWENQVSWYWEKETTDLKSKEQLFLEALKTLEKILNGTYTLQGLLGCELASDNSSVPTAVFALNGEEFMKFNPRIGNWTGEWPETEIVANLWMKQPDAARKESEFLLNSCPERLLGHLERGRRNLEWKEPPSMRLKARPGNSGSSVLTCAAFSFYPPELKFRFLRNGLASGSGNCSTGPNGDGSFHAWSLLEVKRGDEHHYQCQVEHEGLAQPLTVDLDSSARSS
T3 sequence (looked up) 2: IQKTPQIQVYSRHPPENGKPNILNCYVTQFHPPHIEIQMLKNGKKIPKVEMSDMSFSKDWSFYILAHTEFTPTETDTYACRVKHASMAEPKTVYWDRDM
The assay is described as above.

Assay [4] addresses T4, rat FcRn (rat, UniProt P13599 23-298; P07151 21-119, limits assumed).
T4 construct: Construct not described; also called Rat FcRn receptor
T4 sequence (looked up) 1: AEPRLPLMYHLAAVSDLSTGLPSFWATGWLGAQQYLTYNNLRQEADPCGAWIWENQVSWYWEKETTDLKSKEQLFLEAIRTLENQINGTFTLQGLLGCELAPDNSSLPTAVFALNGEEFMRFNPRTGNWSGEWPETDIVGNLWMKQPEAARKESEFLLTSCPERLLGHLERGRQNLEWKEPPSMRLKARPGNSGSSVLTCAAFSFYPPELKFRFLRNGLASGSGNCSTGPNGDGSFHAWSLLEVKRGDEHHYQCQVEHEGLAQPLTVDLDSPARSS
T4 sequence (looked up) 2: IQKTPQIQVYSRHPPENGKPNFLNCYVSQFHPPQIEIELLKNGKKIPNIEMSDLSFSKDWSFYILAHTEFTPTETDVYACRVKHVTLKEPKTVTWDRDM
The description is as above.

Assay [5] has as its target T1, recombinant human FcRn. The assay can be described thus: SPR, antibody amine-coupled on GLM chip, FcRn as analyte, equilibrium model, pH 7.4.
The target in assay [6] is T2, recombinant cynomolgus FcRn. The assay is described as above.
Assay [7] concerns the target T3, mouse FcRn. The assay is described as above.
For assay [8], the target named is T4, rat FcRn. The description is as above.
The target in assay [9] is T1, recombinant human FcRn. Description: SPR, antibody amine-coupled on GLM chip, FcRn as analyte, equilibrium model, pH 6.0; pH 6.0.
Assay [10] concerns the target T2, recombinant cynomolgus FcRn. Described as above.
Assay [11] deals with T3, mouse FcRn. The description is as above.
Assay [12] addresses T4, rat FcRn. The assay is described as above.
Assay [13] has as its target T5, TNF alpha (species not given) (UniProt P01375 77-233, limits assumed). Description: cell-based or functional assay.
Assay [14] deals with T5, TNF alpha (species not stated in the …). The assay can be described thus: cell-based or functional assay. This is another data set of the same source.
The target in assay [15] is T6, recombinant human TNFα (human, UniProt P01375 77-233).
T6 construct: also called human TNF alpha; tumour necrosis factor alpha
T6 sequence (P01375 77-233 limits assumed): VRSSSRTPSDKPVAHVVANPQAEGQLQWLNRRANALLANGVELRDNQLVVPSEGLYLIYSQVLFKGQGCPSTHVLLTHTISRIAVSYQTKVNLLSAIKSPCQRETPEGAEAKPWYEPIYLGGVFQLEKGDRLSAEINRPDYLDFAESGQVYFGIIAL
The assay can be described thus: Biacore T100 SPR, antibody captured on Protein A, TNF alpha as analyte, 37 C.

Assay [16] concerns the target T7, recombinant cynomolgus TNF alpha (cynomolgus, UniProt P79337 77-233).
T7 construct: also called Cyno TNFα
Described as above.

For assay [17], the target named is T6, recombinant human TNFα. The assay can be described thus: Biacore T100 SPR, antibody captured on anti-human IgG, TNF alpha as analyte, 37 C.
Assay [18] concerns the target T7, recombinant cynomolgus TNF alpha. The description is as above.
The target in assay [19] is T5, TNF alpha (species not stated in the …). The assay can be described thus: ProteOn SPR reverse format, biotinylated TNF alpha captured on neutravidin (NLC) chip, antibody as analyte, 1:1 model, apparent kinetics.

The term koff denotes the first-order rate constant of dissociation. What is called kon is a measure of how fast the partners come together.

T7 sequence (P79337 77-233 limits assumed): as the sequence (P01375 77-233 limits assumed) above, with L37V, R44T, T72N, R138L counted along it
T1 sequence (P55899 24-297 limits assumed, chain 1 of 2): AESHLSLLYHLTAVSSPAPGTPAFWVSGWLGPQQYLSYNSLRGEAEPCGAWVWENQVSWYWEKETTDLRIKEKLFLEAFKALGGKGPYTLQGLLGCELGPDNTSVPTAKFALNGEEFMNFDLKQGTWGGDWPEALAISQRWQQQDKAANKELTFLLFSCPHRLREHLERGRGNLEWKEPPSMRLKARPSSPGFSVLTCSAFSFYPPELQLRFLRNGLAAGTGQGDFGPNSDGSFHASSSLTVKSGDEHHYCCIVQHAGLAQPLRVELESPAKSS
T1 sequence (P61769 21-119 limits assumed, chain 2 of 2): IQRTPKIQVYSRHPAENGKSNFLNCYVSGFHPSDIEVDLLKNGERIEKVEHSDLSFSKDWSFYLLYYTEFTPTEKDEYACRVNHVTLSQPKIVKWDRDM
T5 sequence (P01375 77-233 limits assumed): as the sequence (P01375 77-233 limits assumed) above

B1: BPC2604 (antibody, human IgG1, kappa)
heavy: QVTLRESGPALVKPTQTLTLTCTFSGFSLSTSGMGVSWIRQPPGKGLEWLAHIYWDDDKRYNPSLKSRLTISKDTSRNQVVLTMTNMDPVDTATYYCARRETVFYWYFDVWGRGTLVTVSSASTKGPSVFPLAPSSKSTSGGTAALGCLVKDYFPEPVTVSWNSGALTSGVHTFPAVLQSSGLYSLSSVVTVPSSSLGTQTYICNVNHKPSNTKVDKKVEPKSCDKTHTCPPCPAPELLGGPSVFLFPPKPKDTLYITREPEVTCVVVDVSHEDPEVKFNWYVDGVEVHNAKTKPREEQYNSTYRVVSVLTVLHQDWLNGKEYKCKVSNKALPAPIEKTISKAKGQPREPQVYTLPPSRDELTKNQVSLTCLVKGFYPSDIAVEWESNGQPENNYKTTPPVLDSDGSFFLYSKLTVDKSRWQQGNVFSCSVMHEALHNHYTQKSLSLSPGK
light: DIVLTQSPSSLSASVGDRVTITCKASQSVDYDGDSYMNWYQQKPGKAPKLLIYAASNLESGIPSRFSGSGSGTDFTFTISSLQPEDIATYYCQQSNEDPPTFGQGTKVEIKRTVAAPSVFIFPPSDEQLKSGTASVVCLLNNFYPREAKVQWKVDNALQSGNSQESVTEQDSKDSTYSLSSTLTLSKADYEKHKVYACEVTHQGLSSPVTKSFNRGEC
notes: also called pascolizumab-YTE; Pasco-YTE
In the case of B1, the Kd with recombinant human FcRn [1] came out at 98 nM; in [2] it was 92.1 nM; with mouse FcRn [3], 53.4 nM; in the assay with rat FcRn [4], 66 nM; with recombinant human FcRn [5], 11600 nM; in [6] it was 11100 nM. Besides, the Kd stood at 2160 nM in the assay with mouse FcRn [7] and 4330 nM with rat FcRn [8].

B2: Pascolizumab (antibody, human IgG1, kappa)
heavy: not shown
light: B1 light
notes: IgG1, unmodified Fc; also called anti-IL-4 antibody
For the molecule B2, the Kd in the assay with recombinant human FcRn [9] came out at 541 nM; in [10] it was 505 nM; with mouse FcRn [11], 205 nM; with rat FcRn [12], 228 nM.

B3: BPC1500 (antibody, V domains shown)
VH: EVQLVESGGGLVQPGRSLRLSCAASGFTFDDHALHWVRQAPGKGLEWVSAITWNSGHIDYADSVEGRFTISRDNAKNSLYLQMNSLRAEDTAVYYCAKVRYLSTASSLDYWGQGTLVTVSS
VL: not shown
notes: also called CDR variant cb2-44, wild-type Fc; improved anti-TNFα antibody
Take B3: the “IC50, L929 neutralisation assay (cell viability)” value in assay [13] turned out to be 0.13 µg/mL. In addition, the “IC50, TNFα-induced IL-6 release assay (whole blood)” value in assay [14] is 0.11 nM. The Kd with recombinant human TNFα [15] was 0.0156 nM; in assay [16], 0.015 nM; with recombinant human TNFα [17] it was 0.0157 nM; in assay [18], 0.0467 nM; in [19], 0.015 nM. Also, the koff was 4.19e-05 s⁻¹ with recombinant human TNFα [15]; 3.51e-05 s⁻¹ in [16]; 7.07e-05 s⁻¹ with recombinant human TNFα [17]; 0.000209 s⁻¹ in assay [18]; 3e-05 s⁻¹ in [19]. Moreover, the on-rate (kon) with recombinant human TNFα [15] came out at 2.68e+06 M⁻¹ s⁻¹; in assay [16], 2.34e+06 M⁻¹ s⁻¹; with recombinant human TNFα [17], 4.51e+06 M⁻¹ s⁻¹; in assay [18], 4.48e+06 M⁻¹ s⁻¹; in assay [19] it was 2.06e+06 M⁻¹ s⁻¹.
